Results from article PMC2765514 (Biochemistry, 2009).

T1: soluble PDZK1 ΔDTEM purified from bacteria (human, UniProt Q5T2W1 1-515)
T1 sequence (looked up): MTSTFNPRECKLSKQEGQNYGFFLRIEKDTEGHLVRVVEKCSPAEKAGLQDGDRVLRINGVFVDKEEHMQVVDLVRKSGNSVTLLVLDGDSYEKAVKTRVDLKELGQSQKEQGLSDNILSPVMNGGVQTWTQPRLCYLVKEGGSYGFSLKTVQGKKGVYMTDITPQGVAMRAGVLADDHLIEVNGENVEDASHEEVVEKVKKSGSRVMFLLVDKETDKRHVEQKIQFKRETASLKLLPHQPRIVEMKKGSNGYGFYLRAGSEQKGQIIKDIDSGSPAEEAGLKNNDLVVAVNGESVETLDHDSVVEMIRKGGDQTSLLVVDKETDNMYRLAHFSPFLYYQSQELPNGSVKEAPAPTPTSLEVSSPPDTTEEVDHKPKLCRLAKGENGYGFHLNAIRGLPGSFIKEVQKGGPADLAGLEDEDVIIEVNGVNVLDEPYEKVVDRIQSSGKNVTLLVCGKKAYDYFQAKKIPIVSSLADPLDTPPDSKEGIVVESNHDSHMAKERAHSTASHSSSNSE

T2: soluble PDZK1 purified from bacteria (human, UniProt Q5T2W1 1-519)
T2 sequence (looked up): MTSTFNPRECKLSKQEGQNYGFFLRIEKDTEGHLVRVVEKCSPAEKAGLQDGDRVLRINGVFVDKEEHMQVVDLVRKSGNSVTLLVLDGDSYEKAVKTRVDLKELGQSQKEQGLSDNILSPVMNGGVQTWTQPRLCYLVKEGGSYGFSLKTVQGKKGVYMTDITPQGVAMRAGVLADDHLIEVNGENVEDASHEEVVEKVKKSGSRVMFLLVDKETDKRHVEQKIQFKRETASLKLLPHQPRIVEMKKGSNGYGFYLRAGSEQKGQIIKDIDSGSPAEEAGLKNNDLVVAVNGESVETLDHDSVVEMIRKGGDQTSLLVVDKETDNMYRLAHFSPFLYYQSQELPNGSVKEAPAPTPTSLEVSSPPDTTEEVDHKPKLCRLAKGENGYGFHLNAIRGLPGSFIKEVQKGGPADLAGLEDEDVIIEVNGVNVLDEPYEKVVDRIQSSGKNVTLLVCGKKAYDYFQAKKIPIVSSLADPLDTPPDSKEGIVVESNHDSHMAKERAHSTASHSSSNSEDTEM


Experiments:
[1] = biological target: the molecule itself; test: cross-linking
[2] = biological target: T1, soluble PDZK1 ΔDTEM purified from …; test: pull-down
[3] = biological target: T2, soluble PDZK1 purified from bacteria; test: pull-down

| Binder | stoichiometry N [1] | binding result [2] | binding result [3] |
| --- | --- | --- | --- |
| PDZK1 PDZs 3 and 4 to the end of the protein (amino acids 227–515), soluble (domain or fragment, human, UniProt Q5T2W1 227-515, looked up) FKRETASLKLLPHQPRIVEMKKGSNGYGFYLRAGSEQKGQIIKDIDSGSPAEEAGLKNNDLVVAVNGESVETLDHDSVVEMIRKGGDQTSLLVVDKETDNMYRLAHFSPFLYYQSQELPNGSVKEAPAPTPTSLEVSSPPDTTEEVDHKPKLCRLAKGENGYGFHLNAIRGLPGSFIKEVQKGGPADLAGLEDEDVIIEVNGVNVLDEPYEKVVDRIQSSGKNVTLLVCGKKAYDYFQAKKIPIVSSLADPLDTPPDSKEGIVVESNHDSHMAKERAHSTASHSSSNSE | 2 |  |  |
| GST-PDZK1-tail (domain or fragment, human, UniProt Q5T2W1 458-519, looked up) KAYDYFQAKKIPIVSSLADPLDTPPDSKEGIVVESNHDSHMAKERAHSTASHSSSNSEDTEM |  | binds | binds |
